Common to all, as to details: both partners purified
The target of assay [1] is T1, His-L-TGF-β1 (N-terminal His tag followed by aa 30-390 of L-TGF-β1) (Homo sapiens (deposit 8C7H), UniProt P01137).
T1 construct: latent TGF-β1 (LAP and mature TGF-β), aa 30-390; The introduction says that the proprotein is cleaved by a furin-like convertase into LAP and mTGF-β, which stay noncovalently associated; also called latent form of TGF-β; source: HEK293-E6, transiently transfected, purified from supernatant (Ni-NTA, SEC)
T1 sequence (P01137 30-390): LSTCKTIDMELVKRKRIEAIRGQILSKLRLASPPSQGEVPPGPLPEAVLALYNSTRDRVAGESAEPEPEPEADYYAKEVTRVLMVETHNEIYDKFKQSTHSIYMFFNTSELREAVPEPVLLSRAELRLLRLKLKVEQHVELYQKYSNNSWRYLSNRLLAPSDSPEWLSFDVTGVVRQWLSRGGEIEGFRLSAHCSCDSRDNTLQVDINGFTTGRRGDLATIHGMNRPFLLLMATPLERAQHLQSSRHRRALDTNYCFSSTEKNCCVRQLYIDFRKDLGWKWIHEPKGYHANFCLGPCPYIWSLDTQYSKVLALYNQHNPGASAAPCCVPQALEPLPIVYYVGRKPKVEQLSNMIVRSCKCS
Kind of assay: BLI; Abs (10 µg/ml) captured for 180 s on AMC or AHC (anti-murine or anti-human IgG Fc capture) tips; 10 µg/ml GARP, GARP/L-TGF-β or L-TGF-β in solution for 180 s, 600 s dissociation; PBS. Background: BLI is a label-free optical method that tracks binding on a fibre tip over time.

The target of assay [2] is T2, GARP extracellular domain (aa 20-627), Fc-His part cleaved off (UniProt Q14392).
T2 construct: GARP (LRRC32) extracellular domain, aa 20-627; also called LRRC32; GARP-Fc-His; source: HEK293-E6, transiently transfected, purified from supernatant (Ni-NTA, SEC; Fc-His removed with papain and protein A beads); not shown: Fc (human IgG1), C-terminal, cleaved; His tag, C-terminal, cleaved
T2 sequence (Q14392 20-627): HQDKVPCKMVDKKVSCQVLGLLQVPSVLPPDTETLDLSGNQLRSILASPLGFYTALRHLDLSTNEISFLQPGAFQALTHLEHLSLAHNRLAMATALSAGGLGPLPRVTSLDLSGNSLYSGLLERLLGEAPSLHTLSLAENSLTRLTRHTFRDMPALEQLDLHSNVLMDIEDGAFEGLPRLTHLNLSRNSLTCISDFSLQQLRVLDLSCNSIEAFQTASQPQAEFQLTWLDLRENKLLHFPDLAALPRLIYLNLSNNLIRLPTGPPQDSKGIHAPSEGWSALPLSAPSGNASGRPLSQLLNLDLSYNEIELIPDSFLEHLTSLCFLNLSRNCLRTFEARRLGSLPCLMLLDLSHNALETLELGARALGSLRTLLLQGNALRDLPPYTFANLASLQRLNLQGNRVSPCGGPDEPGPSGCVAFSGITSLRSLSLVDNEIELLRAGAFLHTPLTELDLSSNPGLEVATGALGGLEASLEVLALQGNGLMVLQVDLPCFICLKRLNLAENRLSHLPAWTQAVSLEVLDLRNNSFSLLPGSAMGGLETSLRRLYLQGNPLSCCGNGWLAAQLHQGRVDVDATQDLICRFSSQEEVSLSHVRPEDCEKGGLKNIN
The description is as above.

The target in assay [3] is T3, L-TGF-β1 (aa 30-390), as it stands in the GARP/L-TGF-β complex (UniProt P01137).
T3 construct: latent TGF-β1 (LAP and mature TGF-β), aa 30-390; Untagged construct, used only within the complex m3; The introduction says it is cleaved into LAP and mTGF-β; also called LAP and mTGF-β; source: HEK293-E6, transiently transfected, purified as the complex with GARP
T3 sequence (P01137 30-390, one chain of several): as the sequence (P01137 30-390) above
Kind of assay: cryo-EM structure; GARP/L-TGF-β incubated 30 min at 4°C with an excess of Fab, complex purified by SEC in 15 mM HEPES (pH 7.5), 100 mM NaCl; LHG-10 map 2.7 Å with atomic model; 28G11 map 7.5 Å with docked models of PDB 6GFF. For orientation: In gel filtration, larger molecules generally elute earlier.

The target in assay [4] is T4, GARP/L-TGF-β complex (recombinant) (Homo sapiens (deposit 8C7H), UniProt Q14392;P01137).
T4 construct: GARP (LRRC32) extracellular domain, aa 20-627; latent TGF-β1 (LAP and mature TGF-β), aa 30-390; The introduction says that L-TGF-β is linked to GARP by two disulfide bonds and is cleaved into LAP and mTGF-β; also called L-TGF-β/GARP complex; GARP-Fc-His/L-TGF-β; source: HEK293-E6, transiently transfected, purified from supernatant (Ni-NTA, SEC; Fc-His removed with papain and protein A beads); not …
The description is as above.

For assay [5], the target named is T4, GARP/L-TGF-β complex (recombinant). Kind of assay: BLI; Abs (10 µg/ml) captured for 180 s on AMC or AHC (anti-murine or anti-human IgG Fc capture) tips; 10 µg/ml GARP, GARP/L-TGF-β or L-TGF-β in solution for 180 s, 600 s dissociation; PBS.

B1: 28G11 (anti-L-TGF-β / anti-LAP Ab), full-length antibody (antibody, V domains shown)
VH: EVKLVESGGGLVQPGGSLSLSCAASGFTFTDYYMSWVRQPPGKALEWLGFIRNKPNGYTTEYSASVKGRFTISRDNSQSILYLQMNVLRAEDSATYYCARYTGGGYFDYWGQGTTLTVSS
VL: DIQMTQTTSSLSASLGDRLTISCRASQDISNYLNWYQQKPDGTVKLLIYYTSRLHSGVPSRFSGSGSGTDYSLTISNLEQADIATYFCQQGDTLPWTFGGGTKLEIK
notes: A cryo-EM map of its Fab complex is deposited in EMDB, without coordinates; source: HEK293-E6, transiently transfected, purified (protein A MabSelect SuRe)
As for B1, the values for the binding result in assay [1] and in assay [2] were “binds” and “no binding (tested: 10 µg/ml)”, respectively.

B2: Fab 28G11 (Fab, V domains shown)
VH: EVKLVESGGGLVQPGGSLSLSCAASGFTFTDYYMSWVRQPPGKALEWLGFIRNKPNGYTTEYSASVKGRFTISRDNSQSILYLQMNVLRAEDSATYYCARYTGGGYFDYWGQGTTLTVSS
VL: DIQMTQTTSSLSASLGDRLTISCRASQDISNYLNWYQQKPDGTVKLLIYYTSRLHSGVPSRFSGSGSGTDYSLTISNLEQADIATYFCQQGDTLPWTFGGGTKLEIK
notes: Fab part of the heavy chain of m5; The cryo-EM map is deposited in EMDB, without coordinates; As the light chain of m5; source: HEK293-E6 antibody cleaved with immobilized papain, Fc removed with protein A beads
Regarding B2, the binding result in assay [3] is “binds”. Moreover, in assay [4], the “stoichiometry N” value amounted to 1.

B3: LHG-10 (anti-L-TGF-β/GARP Ab), full-length antibody (antibody, V domains shown)
VH: EVQLVQPGAELRNSGASVKVSCKASGYRFTSYYIDWVRQAPGQGLEWMGRIDPEDGGTKYAQKFQGRVTFTADTSTSTAYVELSSLRSEDTAVYYCARNEWETVVVGDLMYEYEYWGQGTQVTVSS
VL: DIQMTQSPSSLSASLGDRVTITCQASQSISSYLAWYQQKPGQAPNILIYGASRLKTGVPSRFSGSGSGTSFTLTISGLEAEDAGTYYCQQYASVPVTFGQGTKVELK
notes: source: HEK293-E6, transiently transfected, purified (protein A MabSelect SuRe)
Take B3: the binding result in assay [1] was “no binding (tested: 10 µg/ml)”; in assay [2], “no binding (tested: 10 µg/ml)”; in assay [5], “binds”.

B4: Fab LHG-10 (Fab, V domains shown)
VH: EVQLVQPGAELRNSGASVKVSCKASGYRFTSYYIDWVRQAPGQGLEWMGRIDPEDGGTKYAQKFQGRVTFTADTSTSTAYVELSSLRSEDTAVYYCARNEWETVVVGDLMYEYEYWGQGTQVTVSS
VL: DIQMTQSPSSLSASLGDRVTITCQASQSISSYLAWYQQKPGQAPNILIYGASRLKTGVPSRFSGSGSGTSFTLTISGLEAEDAGTYYCQQYASVPVTFGQGTKVELK
notes: Fab part of the heavy chain of m8; As the light chain of m8; source: HEK293-E6 antibody cleaved with immobilized papain, Fc removed with protein A beads
Take B4: the binding result in assay [4] is given as “binds”.

B5: MHG-8 (anti-L-TGF-β/GARP Ab), full-length antibody (antibody, V domains shown)
VH: QVQLKESGPGLVAPSQSLSITCTVSGFSLTGYGINWVRQPPGKGLEWLGMIWSDGSTDYNSVLTSRLRISKDNSNSQVFLKMNSLQVDDTARYYCARDRNYYDYDGAMDYWGQGTSVTVSS
VL: DIQVTQSSSYLSVSLGDRVTITCKASDHIKNWLAWYQQKPGIAPRLLVSGATSLEAGVPSRFSGSGSGKNFTLSITSLQTEDVATYYCQQYWSTPWTFGGGTTLEIR
notes: as for B3
Consider B5, for which the binding result is recorded as “no binding (tested: 10 µg/ml)” in assay [1], “no binding (tested: 10 µg/ml)” in assay [2] and “binds” in assay [5].

A word on the stoichiometry N: it is the number of molecules, sites or subunits per partner or assembly.
